Laboratory results reported in patent US20170081400A1 (CEPHALON, published 2017).

Tests used:
[1] = target: T1, human TL1A extracellular domain with N-terminal HIS and FLAG tag (human, UniProt O95150 72-251); experiment: SPR Run 6, purified Ab captured on Protein A, TL1A 5 ug/mL, timepoint 44
T1 construct: the whole entry is named
T1 sequence: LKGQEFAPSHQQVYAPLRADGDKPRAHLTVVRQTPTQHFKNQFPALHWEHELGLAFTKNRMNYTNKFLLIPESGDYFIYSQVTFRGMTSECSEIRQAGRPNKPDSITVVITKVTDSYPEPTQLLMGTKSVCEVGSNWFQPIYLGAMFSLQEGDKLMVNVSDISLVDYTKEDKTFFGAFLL
Text: (§1) 1.5. Antibody expression and antigen binding as determined by SPR. Using a CM5 sensor chip (GE Healthcare) Protein A (Pierce) was coupled to the chip surface using an amine coupling kit (GE Healthcare). Protein A was coupled on flow cell 1 and 2 (or alternatively 3 and 4) using a BIACORE® T200. […] The amount of supernatant or purified protein (as well as the concentration) injected during the capture stage varied between runs and is specified in the header of the Tables 3-11. At the end of injection of the supernatant or purified antibody the change in response units was measured. This value was reported as Capture Level in Tables 3-11. […] The response units were measured prior to the end of the dissociation phase. […] The sensorgrams were double referenced (flow cell 2 is subtracted from flow cell 1 and a buffer blank). As there were a large number of antibody variants to screen, these were screened across different runs (Tables 3-11). […] A summary of the conditions used in each run is below:
(§2) 2.1. […] In some experiment the antibodies were purified using Protein A chromatography (See 1.4) and purified antibodies were used in BIACORE® (GE Healthcare) experiments.

[2] = target: T1, human TL1A extracellular domain with …; experiment: SPR Run 6, purified Ab captured on Protein A, TL1A 5 ug/mL, timepoint 170
Text: as §1, §2

| Binder | TL1A Binding Level (Early) [1] | TL1A Binding Level (Late) [2] |
| --- | --- | --- |
| 320-447 (antibody, human IgG1, name in Kabat numbering, V domains shown, human IgG1, lambda) VH: QVQLVQSGAEVKKPGASVKVSCKASGYTFTSYSINWVRQAPGQGLEWMGWLNPNSGNTGYAQKFQGRVTMTADRSTSTAYMELSSLRSEDTAVYYCAREVPETAAFEYWGQGTLVTVSS VL: QSVLTQPPSVSGAPGQRVTISCTSSSSDIGAGLGVHWYQQLPGTAPKLLIEGYYNRPSGVPDRFSGSKSGTSASLTITGLLPEDEGDYYCQSYDGTLSALFGGGTKLTVLG | 37 RU | 13 RU |
| 320-449 (antibody, human IgG1, name in Kabat numbering, V domains shown, human IgG1, lambda) VH: QVQLVQSGAEVKKPGASVKVSCKASGYTFTSYHINWVRQAPGQGLEWMGWLNPNSGNTGYAQKFQGRVTMTADRSTSTAYMELSSLRSEDTAVYYCAREVPETAAFEYWGQGTLVTVSS VL: QSVLTQPPSVSGAPGQRVTISCTSSSSDIGAGLGVHWYQQLPGTAPKLLIEGYYNRPSGVPDRFSGSKSGTSASLTITGLLPEDEGDYYCQSYDGTLSALFGGGTKLTVLG | 76 RU | 59 RU |
| 320-451 (antibody, human IgG1, name in Kabat numbering, V domains shown, human IgG1, lambda) VH: QVQLVQSGAEVKKPGASVKVSCKASGYTFTSYLINWVRQAPGQGLEWMGWLNPNSGNTGYAQKFQGRVTMTADRSTSTAYMELSSLRSEDTAVYYCAREVPETAAFEYWGQGTLVTVSS VL: QSVLTQPPSVSGAPGQRVTISCTSSSSDIGAGLGVHWYQQLPGTAPKLLIEGYYNRPSGVPDRFSGSKSGTSASLTITGLLPEDEGDYYCQSYDGTLSALFGGGTKLTVLG | 19 RU | 8 RU |
| 320-452 (antibody, human IgG1, name in Kabat numbering, V domains shown, human IgG1, lambda) VH: QVQLVQSGAEVKKPGASVKVSCKASGYTFTSYWINWVRQAPGQGLEWMGWLNPNSGNTGYAQKFQGRVTMTADRSTSTAYMELSSLRSEDTAVYYCAREVPETAAFEYWGQGTLVTVSS VL: QSVLTQPPSVSGAPGQRVTISCTSSSSDIGAGLGVHWYQQLPGTAPKLLIEGYYNRPSGVPDRFSGSKSGTSASLTITGLLPEDEGDYYCQSYDGTLSALFGGGTKLTVLG | 84 RU | 78 RU |
| 320-453 (antibody, human IgG1, name in Kabat numbering, V domains shown, human IgG1, lambda) VH: QVQLVQSGAEVKKPGASVKVSCKASGYTFTSYYINWVRQAPGQGLEWMGWLNPNSGNTGYAQKFQGRVTMTADRSTSTAYMELSSLRSEDTAVYYCAREVPETAAFEYWGQGTLVTVSS VL: QSVLTQPPSVSGAPGQRVTISCTSSSSDIGAGLGVHWYQQLPGTAPKLLIEGYYNRPSGVPDRFSGSKSGTSASLTITGLLPEDEGDYYCQSYDGTLSALFGGGTKLTVLG | 111 RU | 104 RU |
| 320-454 (antibody, human IgG1, name in Kabat numbering, V domains shown, human IgG1, lambda) VH: QVQLVQSGAEVKKPGASVKVSCKASGYTFTSYDANWVRQAPGQGLEWMGWLNPNSGNTGYAQKFQGRVTMTADRSTSTAYMELSSLRSEDTAVYYCAREVPETAAFEYWGQGTLVTVSS VL: QSVLTQPPSVSGAPGQRVTISCTSSSSDIGAGLGVHWYQQLPGTAPKLLIEGYYNRPSGVPDRFSGSKSGTSASLTITGLLPEDEGDYYCQSYDGTLSALFGGGTKLTVLG | 43 RU | 37 RU |
| 320-455 (antibody, human IgG1, name in Kabat numbering, V domains shown, human IgG1, lambda) VH: QVQLVQSGAEVKKPGASVKVSCKASGYTFTSYDSNWVRQAPGQGLEWMGWLNPNSGNTGYAQKFQGRVTMTADRSTSTAYMELSSLRSEDTAVYYCAREVPETAAFEYWGQGTLVTVSS VL: QSVLTQPPSVSGAPGQRVTISCTSSSSDIGAGLGVHWYQQLPGTAPKLLIEGYYNRPSGVPDRFSGSKSGTSASLTITGLLPEDEGDYYCQSYDGTLSALFGGGTKLTVLG | 27 RU | 23 RU |
| 320-456 (antibody, human IgG1, name in Kabat numbering, V domains shown, human IgG1, lambda) VH: QVQLVQSGAEVKKPGASVKVSCKASGYTFTSYDQNWVRQAPGQGLEWMGWLNPNSGNTGYAQKFQGRVTMTADRSTSTAYMELSSLRSEDTAVYYCAREVPETAAFEYWGQGTLVTVSS VL: QSVLTQPPSVSGAPGQRVTISCTSSSSDIGAGLGVHWYQQLPGTAPKLLIEGYYNRPSGVPDRFSGSKSGTSASLTITGLLPEDEGDYYCQSYDGTLSALFGGGTKLTVLG | 52 RU | 46 RU |
| 320-458 (antibody, human IgG1, name in Kabat numbering, V domains shown, human IgG1, lambda) VH: QVQLVQSGAEVKKPGASVKVSCKASGYTFTSYDHNWVRQAPGQGLEWMGWLNPNSGNTGYAQKFQGRVTMTADRSTSTAYMELSSLRSEDTAVYYCAREVPETAAFEYWGQGTLVTVSS VL: QSVLTQPPSVSGAPGQRVTISCTSSSSDIGAGLGVHWYQQLPGTAPKLLIEGYYNRPSGVPDRFSGSKSGTSASLTITGLLPEDEGDYYCQSYDGTLSALFGGGTKLTVLG | 59 RU | 53 RU |
| 320-459 (antibody, human IgG1, name in Kabat numbering, V domains shown, human IgG1, lambda) VH: QVQLVQSGAEVKKPGASVKVSCKASGYTFTSYDKNWVRQAPGQGLEWMGWLNPNSGNTGYAQKFQGRVTMTADRSTSTAYMELSSLRSEDTAVYYCAREVPETAAFEYWGQGTLVTVSS VL: QSVLTQPPSVSGAPGQRVTISCTSSSSDIGAGLGVHWYQQLPGTAPKLLIEGYYNRPSGVPDRFSGSKSGTSASLTITGLLPEDEGDYYCQSYDGTLSALFGGGTKLTVLG | 20 RU | 17 RU |
| 320-460 (antibody, human IgG1, name in Kabat numbering, V domains shown, human IgG1, lambda) VH: QVQLVQSGAEVKKPGASVKVSCKASGYTFTSYDLNWVRQAPGQGLEWMGWLNPNSGNTGYAQKFQGRVTMTADRSTSTAYMELSSLRSEDTAVYYCAREVPETAAFEYWGQGTLVTVSS VL: QSVLTQPPSVSGAPGQRVTISCTSSSSDIGAGLGVHWYQQLPGTAPKLLIEGYYNRPSGVPDRFSGSKSGTSASLTITGLLPEDEGDYYCQSYDGTLSALFGGGTKLTVLG | 114 RU | 105 RU |
| 320-461 (antibody, human IgG1, name in Kabat numbering, V domains shown, human IgG1, lambda) VH: QVQLVQSGAEVKKPGASVKVSCKASGYTFTSYDWNWVRQAPGQGLEWMGWLNPNSGNTGYAQKFQGRVTMTADRSTSTAYMELSSLRSEDTAVYYCAREVPETAAFEYWGQGTLVTVSS VL: QSVLTQPPSVSGAPGQRVTISCTSSSSDIGAGLGVHWYQQLPGTAPKLLIEGYYNRPSGVPDRFSGSKSGTSASLTITGLLPEDEGDYYCQSYDGTLSALFGGGTKLTVLG | 87 RU | 82 RU |
| 320-462 (antibody, human IgG1, name in Kabat numbering, V domains shown, human IgG1, lambda) VH: QVQLVQSGAEVKKPGASVKVSCKASGYTFTSYDYNWVRQAPGQGLEWMGWLNPNSGNTGYAQKFQGRVTMTADRSTSTAYMELSSLRSEDTAVYYCAREVPETAAFEYWGQGTLVTVSS VL: QSVLTQPPSVSGAPGQRVTISCTSSSSDIGAGLGVHWYQQLPGTAPKLLIEGYYNRPSGVPDRFSGSKSGTSASLTITGLLPEDEGDYYCQSYDGTLSALFGGGTKLTVLG | 58 RU | 52 RU |
| 320-465 (antibody, human IgG1, name in Kabat numbering, V domains shown, human IgG1, lambda) VH: QVQLVQSGAEVKKPGASVKVSCKASGYTFTSYDIQWVRQAPGQGLEWMGWLNPNSGNTGYAQKFQGRVTMTADRSTSTAYMELSSLRSEDTAVYYCAREVPETAAFEYWGQGTLVTVSS VL: QSVLTQPPSVSGAPGQRVTISCTSSSSDIGAGLGVHWYQQLPGTAPKLLIEGYYNRPSGVPDRFSGSKSGTSASLTITGLLPEDEGDYYCQSYDGTLSALFGGGTKLTVLG | 92 RU | 78 RU |
| 320-466 (antibody, human IgG1, name in Kabat numbering, V domains shown, human IgG1, lambda) VH: QVQLVQSGAEVKKPGASVKVSCKASGYTFTSYDIDWVRQAPGQGLEWMGWLNPNSGNTGYAQKFQGRVTMTADRSTSTAYMELSSLRSEDTAVYYCAREVPETAAFEYWGQGTLVTVSS VL: QSVLTQPPSVSGAPGQRVTISCTSSSSDIGAGLGVHWYQQLPGTAPKLLIEGYYNRPSGVPDRFSGSKSGTSASLTITGLLPEDEGDYYCQSYDGTLSALFGGGTKLTVLG | 93 RU | 86 RU |
| 320-467 (antibody, human IgG1, name in Kabat numbering, V domains shown, human IgG1, lambda) VH: QVQLVQSGAEVKKPGASVKVSCKASGYTFTSYDIHWVRQAPGQGLEWMGWLNPNSGNTGYAQKFQGRVTMTADRSTSTAYMELSSLRSEDTAVYYCAREVPETAAFEYWGQGTLVTVSS VL: QSVLTQPPSVSGAPGQRVTISCTSSSSDIGAGLGVHWYQQLPGTAPKLLIEGYYNRPSGVPDRFSGSKSGTSASLTITGLLPEDEGDYYCQSYDGTLSALFGGGTKLTVLG | 44 RU | 24 RU |
| 320-469 (antibody, human IgG1, name in Kabat numbering, V domains shown, human IgG1, lambda) VH: QVQLVQSGAEVKKPGASVKVSCKASGYTFTSYDILWVRQAPGQGLEWMGWLNPNSGNTGYAQKFQGRVTMTADRSTSTAYMELSSLRSEDTAVYYCAREVPETAAFEYWGQGTLVTVSS VL: QSVLTQPPSVSGAPGQRVTISCTSSSSDIGAGLGVHWYQQLPGTAPKLLIEGYYNRPSGVPDRFSGSKSGTSASLTITGLLPEDEGDYYCQSYDGTLSALFGGGTKLTVLG | 69 RU | 61 RU |
